{
  "source": "patent US20050221292A1",
  "key": {"[1]": {"target": "T1, F(MMP#2): Sendai virus F protein with the activation site modified to PLG↓MTS (UniProt P04855)", "T1 sequence": "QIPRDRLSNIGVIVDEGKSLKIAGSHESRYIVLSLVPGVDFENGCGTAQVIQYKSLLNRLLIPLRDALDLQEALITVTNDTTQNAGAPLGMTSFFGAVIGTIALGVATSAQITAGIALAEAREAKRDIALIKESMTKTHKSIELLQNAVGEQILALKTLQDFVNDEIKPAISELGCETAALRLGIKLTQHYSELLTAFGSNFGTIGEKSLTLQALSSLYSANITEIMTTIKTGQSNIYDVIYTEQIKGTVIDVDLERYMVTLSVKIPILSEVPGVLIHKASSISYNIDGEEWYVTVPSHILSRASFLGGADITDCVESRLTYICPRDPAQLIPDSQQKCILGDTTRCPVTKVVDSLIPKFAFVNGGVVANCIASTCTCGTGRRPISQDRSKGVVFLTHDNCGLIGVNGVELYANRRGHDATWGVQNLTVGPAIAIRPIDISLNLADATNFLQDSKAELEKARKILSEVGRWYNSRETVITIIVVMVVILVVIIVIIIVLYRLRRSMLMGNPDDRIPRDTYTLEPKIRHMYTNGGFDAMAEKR"}, "[2]": {"target": "T2, F(uPA): Sendai virus F protein with the activation site modified to VGR (UniProt P04855)", "T2 sequence": "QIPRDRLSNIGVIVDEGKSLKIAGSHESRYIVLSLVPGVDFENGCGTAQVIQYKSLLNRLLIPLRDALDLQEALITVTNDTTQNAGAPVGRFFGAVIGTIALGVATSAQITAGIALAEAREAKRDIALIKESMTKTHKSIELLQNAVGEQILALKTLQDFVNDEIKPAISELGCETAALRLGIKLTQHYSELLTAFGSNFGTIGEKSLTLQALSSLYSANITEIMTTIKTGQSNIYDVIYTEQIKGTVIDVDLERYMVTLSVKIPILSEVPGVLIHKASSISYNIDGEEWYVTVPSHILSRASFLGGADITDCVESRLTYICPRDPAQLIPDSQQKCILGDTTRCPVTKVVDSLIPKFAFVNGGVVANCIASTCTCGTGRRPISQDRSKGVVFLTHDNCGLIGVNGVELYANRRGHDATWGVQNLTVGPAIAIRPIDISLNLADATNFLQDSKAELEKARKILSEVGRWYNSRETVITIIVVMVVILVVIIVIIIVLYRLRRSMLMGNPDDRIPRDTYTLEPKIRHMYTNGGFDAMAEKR"}, "[3]": {"target": "T3, Fct14(MMP#6)/Linker/HN chimeric protein (UniProt P04855)", "T3 sequence": "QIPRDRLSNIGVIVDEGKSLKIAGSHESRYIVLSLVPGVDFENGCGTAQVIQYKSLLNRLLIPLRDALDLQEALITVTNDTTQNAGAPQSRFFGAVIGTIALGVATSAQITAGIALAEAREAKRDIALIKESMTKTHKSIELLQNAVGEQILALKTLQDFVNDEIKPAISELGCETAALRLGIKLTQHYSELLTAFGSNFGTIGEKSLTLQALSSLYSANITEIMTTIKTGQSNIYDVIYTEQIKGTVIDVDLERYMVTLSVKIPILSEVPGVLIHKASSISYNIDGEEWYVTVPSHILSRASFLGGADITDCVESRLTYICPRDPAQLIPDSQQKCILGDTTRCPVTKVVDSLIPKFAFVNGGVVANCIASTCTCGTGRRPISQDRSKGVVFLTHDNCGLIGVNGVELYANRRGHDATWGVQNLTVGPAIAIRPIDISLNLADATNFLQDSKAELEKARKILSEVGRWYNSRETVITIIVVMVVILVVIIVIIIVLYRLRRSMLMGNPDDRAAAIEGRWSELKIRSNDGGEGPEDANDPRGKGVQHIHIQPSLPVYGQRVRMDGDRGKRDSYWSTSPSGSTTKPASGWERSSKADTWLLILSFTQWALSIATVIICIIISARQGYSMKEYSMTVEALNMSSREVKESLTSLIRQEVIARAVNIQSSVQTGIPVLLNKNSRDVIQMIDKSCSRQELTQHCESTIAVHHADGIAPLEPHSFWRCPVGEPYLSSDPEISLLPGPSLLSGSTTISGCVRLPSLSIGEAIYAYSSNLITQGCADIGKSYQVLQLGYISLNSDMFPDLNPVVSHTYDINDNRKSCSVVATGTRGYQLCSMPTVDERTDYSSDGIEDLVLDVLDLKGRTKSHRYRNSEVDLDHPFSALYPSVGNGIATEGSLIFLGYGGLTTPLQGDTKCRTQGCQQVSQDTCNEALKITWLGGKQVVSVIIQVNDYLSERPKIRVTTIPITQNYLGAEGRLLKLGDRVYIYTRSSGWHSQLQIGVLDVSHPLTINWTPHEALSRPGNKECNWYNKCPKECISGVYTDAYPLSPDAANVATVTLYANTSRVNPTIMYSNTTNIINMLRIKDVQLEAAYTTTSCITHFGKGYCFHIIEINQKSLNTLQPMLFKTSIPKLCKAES"}, "[4]": {"target": "T4, Sendai virus (SeV) F protein, wild type (unmodified F) (UniProt P04855)", "T4 sequence": "T2 sequence with V89Q, G90S"}},
  "note": "Where a chain is given by its changes, count along the chain named.",
  "data": [
    {"substance": "active MMP-9 (COSMO BIO)", "values": [
      {"measurement": "cleavage of F0 to F1 (Western blotting of protease-treated viral particles)", "setting": "[1]", "result": "MMP-9 cleaved that of the M-deficient SeV vector having the MMP#2 sequence inserted into the F protein"}
    ]},
    {"substance": "uPA (urokinase-type plasminogen activator)", "values": [
      {"measurement": "cleavage of F0 to F1 (Western blotting of protease-treated viral particles)", "setting": "[2]", "result": "uPA cleaved that of the M-deficient SeV vector having the uPA sequence inserted into the F protein"},
      {"measurement": "syncytia formation in LLC-MK2 (exogenous protease)", "setting": "[2]", "result": "upon further modification of the F protein, showed the formation of syncytia, multinuclear cells, in the presence of uPA"}
    ]},
    {"substance": "type IV collagenase (Clostridium histolyticum) (ICN)", "values": [
      {"measurement": "fusogenicity (syncytium formation) relative to the MMP#2 chimera, against concentration of added collagenase", "setting": "[3]", "result": "MMP#6 was found to have two to three times higher fusogenicity compared to MMP#2"}
    ]},
    {"substance": "trypsin (Gibco-BRL)", "values": [
      {"measurement": "cleavage of F0 to F1 (Western blotting of protease-treated viral particles)", "setting": "[4]", "result": "trypsin cleaved the F protein of the F-unmodified M-deficient SeV vector"},
      {"measurement": "cleavage of F0 to F1 (Western blotting; data not shown)", "setting": "[2]", "result": "for the M-deficient SeV vector into which uPA sequence is inserted, cleavage of F1 was observed in the presence of trypsin when the degradation time was prolonged to four hours"}
    ]}
  ]
}
